This passage reports amyloid nucleation score results from the supplement of paper PMC12042874.

± gives the uncertainty stated by the source.

This data set in a line: amyloid nucleation score (Sup35N fusion, yeast selection) (log enrichment); library NNK2; higher = more nucleation; inactive = no reads after selection. In a few lines:
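Psi-negative yeast expressed Sup35N fused to peptides of 20 random codons. They were induced 24 hours with 100 μM copper sulfate, grown 7 days at 30°C without adenine and uracil, and their plasmid inserts from input and output were Illumina-sequenced. The nucleation score is the DiMSum log enrichment of output over input reads, centred on the mode score of non-aggregating sequences. Sequences with under 100 input reads were excluded.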
TCIYSYRRNSCRIGCLRSWR: the amyloid nucleation score was 0.425 ± 0.6.

Turning to LNMVLDF, the amyloid nucleation score entry was “inactive”. Turning to QVGRSSQCEDTVVFIRVRLW, the amyloid nucleation score was 3.77 ± 0.066. KYNSCSYEGSRRILFSGACR: the amyloid nucleation score was -0.699 ± 0.45.

With VKAVMWIDLVNRVIMNGHIS, the amyloid nucleation score is -0.461 ± 0.49.

As to NDMFLSYLHSPWYNVLCDFI, the amyloid nucleation score was -1.29 ± 0.49.

Turning to SCFLNMTLILDLVITGMMPR, the amyloid nucleation score was -0.251 ± 0.32.

On to YWLVRMVHGRAWPIFEENCQ, for which the amyloid nucleation score was -0.01 ± 1. LTAGVYSSSWSDVS returned an amyloid nucleation score of 1.4 ± 0.14. Take CRAFVWQ: the amyloid nucleation score is -0.889 ± 0.55.

For TLGYKFWMGRYRVNSAYGFE, the amyloid nucleation score is -0.005 ± 0.61. Substance KVSSLNCCVRCLDTMCAFQV registered an amyloid nucleation score of 6.15 ± 0.088. LFCSRQSTWPRDKGVFPWTI: the amyloid nucleation score was -0.916 ± 1.1. The substance DKICNYVVGGEVYFSMNHYW had an amyloid nucleation score of 8.327 ± 0.047. Take VNNATKIGWSSMAIRDNKTI: the amyloid nucleation score was -0.142 ± 0.49. As to PDFYMYPSLNDKSDLI, the amyloid nucleation score was -0.78 ± 0.76. Consider PIFNMSTPNFLSSPESRLLV, for which the amyloid nucleation score result is “inactive”. As for FGYFYMKHLTPALMPYTGY, the amyloid nucleation score was -0.441 ± 1.1. Take KLYKCQRQCPALAKVTYGYK: the amyloid nucleation score was 0.332 ± 0.27. DRFRDVIICFFKCTCNRITQ registered an amyloid nucleation score of 4.949 ± 0.034.

As to TFTFDGRSSNFG, the amyloid nucleation score was -0.343 ± 0.55.

Consider LIADLQKFSYVSWAGCMTY, for which the amyloid nucleation score amounted to 4.4 ± 0.085. SGNHSLVLYDWDYVWYVTQY: the amyloid nucleation score was -1.1 ± 0.45.

VCDFNVLDGCGNPGLL: the amyloid nucleation score was -0.67 ± 1.1.

On to EFMNDVIILIYLSFKRTILN, for which the amyloid nucleation score was -0.541 ± 1.1. Substance HKGWIKLLLPAHQLITLPPN registered an amyloid nucleation score of 0.174 ± 1. In the case of HLRIGLIN, the amyloid nucleation score is -0.467 ± 0.43.

With IFIRLFVLANYCINLFSS, the amyloid nucleation score is 3.28 ± 0.082.

Regarding LTEDTMFG, the amyloid nucleation score is -0.573 ± 0.76.

As to DCTLAVLFYKTEFITPRAQW, the amyloid nucleation score amounted to 2.28 ± 0.14. The figure for AFSFDAW is 2.02 ± 0.14; for LRSWEGLSQAWRPCCVILHN it is 0.48 ± 0.34. In the case of CSKLFSRGPGLAFFQFFI, the amyloid nucleation score result is “inactive”. VLDTMYGTDIQRRTMGKANT yielded an amyloid nucleation score of 0.391 ± 0.36. Under LSSVILVLNNSVAFYILDAG stands 3.83 ± 0.09; under AMYINWSLFVKLSRRMRYQR, “inactive”.

Substance LAYPMISVFYHELIIDLRSM showed an amyloid nucleation score of 3.92 ± 0.11.

SSRQSW showed an amyloid nucleation score of 0.082 ± 1. On to SCVCVMSYQLNVWRKHDSCI, for which the amyloid nucleation score was found to be 4.606 ± 0.035. Under LKCPGLTREGLSPYKSSLPN stands -0.202 ± 1. As to LALIMTFLQPGERLRGSVAI, the amyloid nucleation score entry was “inactive”.

Regarding YRVDSHWANLVLKTSMIWTT, the amyloid nucleation score is -0.829 ± 0.28. Under DDDNRNNLLWAMNADLGLRC stands 2.32 ± 0.091. Substance RPISLCALYWLNLRANIHCR registered an amyloid nucleation score of 0.144 ± 0.56. Substance YSLWLVVCYLLVCWNINCGT registered an amyloid nucleation score of 0.366 ± 0.44.

SDEIECCKYFFGYL came in with an amyloid nucleation score of 5.347 ± 0.047. Take LVSVVNMVADSSRKSSQGEL: the amyloid nucleation score came to 4.875 ± 0.039. Under KLANV stands “inactive”; under LRVGSCNVTSLMGNLVGLDS, 1.37 ± 0.42. Take NAQSRVLAEETGLSNPPIML: the amyloid nucleation score is -1.45 ± 0.62. Turning to SWSCMTRW, the amyloid nucleation score worked out at 5.464 ± 0.049. ILFIIWGHLRYVRIVSYVGY: the amyloid nucleation score is -1.48 ± 0.62. The figure for AFWVLTVPLGSWYCACYCYS is -0.662 ± 0.39; for PSDTYNNDG it is 0.751 ± 0.58.

The substance ICIDRNRI had an amyloid nucleation score of 0.396 ± 0.34. Turning to SKCIASFNLRSYCMSRLASS, the amyloid nucleation score was -1.15 ± 1.1. Consider DVRHQWFEMVRVVIICKPVN, for which the amyloid nucleation score was -0.149 ± 0.42. The figure for PSAVRTILVTAI is -0.447 ± 0.35. For the substance DLIYGGYST, the amyloid nucleation score result is “inactive”. GLMAWR: the amyloid nucleation score was determined as 0.154 ± 0.37. The figure for LSKHPYGCVL is 0.862 ± 0.66; for CMAIDLPVHYS it is 0.005 ± 0.55.

In the case of SLTAVWDDLAMLKLWAEMEM, the amyloid nucleation score amounted to 0.053 ± 1.1.

As for RIRYGLKVCSMVDGMLGRDW, the amyloid nucleation score came to 0.807 ± 0.29. Take SYVNKWAECLSCTTEYTMSK: the amyloid nucleation score result was “inactive”.

With FPGRSSCDHTAMWLL, the amyloid nucleation score worked out at 0.732 ± 0.4. With HKWWSAPGSLAS, the amyloid nucleation score was -0.038 ± 0.79.

For NHLIV, the amyloid nucleation score was -1.09 ± 0.3.

Take MGYRFSGDLMEGRSTEWWRA: the amyloid nucleation score is 0.836 ± 0.47.

For the substance SFDLAVTECIALCFRCYQVF, the amyloid nucleation score is -1.04 ± 0.39. In turn, YMWVCACRMSLIHGLSGHHD showed an amyloid nucleation score of 0.536 ± 0.46. The figure for HRNQTASKGCSCLLDCHDTG is 0.356 ± 0.23; for IKILLCRSGARIGVSCDMSC it is 0.706 ± 0.74; for YVLGEHRIRCGEDYV it is 1.77 ± 0.31. For the substance MRSTALYDILRRPWFNFSAY, the amyloid nucleation score was -0.014 ± 0.76. With VFILWFTVSATIKKESFGNN, the amyloid nucleation score is -2.34 ± 1.1. As for PFMLSVHFALYMSDYIYMHL, the amyloid nucleation score was -0.02 ± 0.46. MVINSAWVCENGLSQYFLAK: the amyloid nucleation score was 4.27 ± 0.075. Substance GVSNNALCSNRITSLNRPML displayed an amyloid nucleation score of 0.313 ± 0.17. On to LWMCKTFYGAGLSPVVK, for which the amyloid nucleation score is -0.038 ± 1.

HIDNVGVLR yielded an amyloid nucleation score of 1.18 ± 0.28. Turning to TSNLFHLYGACRRYMGRCSA, the amyloid nucleation score was determined as 0.434 ± 0.66. QTSYMDYKYRMGFLS: the amyloid nucleation score was -0.69 ± 0.63. Take MTSRVETSKCNCSLQVWRPL: the amyloid nucleation score is 0.579 ± 0.37. Regarding RCREWYMR, the amyloid nucleation score was -0.568 ± 0.63. Take VRMSSRRS: the amyloid nucleation score came out at 1.24 ± 0.36.

Substance TRDSLGRKGYRSAVLTPSMP gave an amyloid nucleation score of 1.29 ± 0.14. In turn, RHKFAMMACVTYNGDVGVMT gave an amyloid nucleation score of 1.14 ± 0.21.

Take DLRYTMYYDCFCYVFCPSMT: the amyloid nucleation score is 8.166 ± 0.059.

The substance YVFSIYGPFLLVEGLSTPFR yielded an amyloid nucleation score of 4.49 ± 0.095. Under FLKIYPIPNCYERCCVHLPP stands 0.06 ± 0.61; under PEYPVQIYMSMDL, -1.33 ± 0.78; under WTLLNCRGSEVKIGRCTKMG, “inactive”.

On to ISECR, for which the amyloid nucleation score is -0.432 ± 1.1.

As to EVEIEE, the amyloid nucleation score was -0.576 ± 0.76. Consider WLKYMSCSLAKSQVSACVSV, for which the amyloid nucleation score stood at 0.219 ± 0.46. Take LFFSATKTCSWSLKECAKR: the amyloid nucleation score was -0.243 ± 1.1. In the case of LAKHTGRAGKRCKDMP, the amyloid nucleation score was -0.069 ± 0.31. On to RNVACFSAVT, for which the amyloid nucleation score is -0.283 ± 0.63. DKIRTSKAISQIWLLPIYFE returned an amyloid nucleation score of 0.491 ± 0.57.

As to SREYDCYLWRNLVWNCWMNW, the amyloid nucleation score is 5.638 ± 0.048. The substance FIPYNSW registered an amyloid nucleation score of 0.689 ± 0.16. For WHFSRSWDPKFWRRAHSWWE, the amyloid nucleation score was 0.276 ± 0.5. Under GFGVPDWMFDSFSAAQLSQI stands -0.343 ± 0.35; under LQVVVMFCPSL, 8.29 ± 0.024; under NFYILLATGSFYAVLGCRQY, 2.36 ± 0.12. Turning to LVYVWKDLAYMVLLHFRLFL, the amyloid nucleation score is -1.16 ± 1.1. Regarding CWLAMN, the amyloid nucleation score was -0.166 ± 0.8. Under YYACNKAND stands -0.607 ± 1; under YMSNPSELWKNWILVHYHFC, 3.56 ± 0.076. As for NRDVFWRFLVTTVVYELSSK, the amyloid nucleation score result is “inactive”. With TRVAYRI, the amyloid nucleation score is 0.219 ± 1. Substance IPYYIDKKQSKMCNGFWS yielded an amyloid nucleation score of 0.572 ± 0.57.

Turning to SVGYWTVDSVTSVATPLFLA, the amyloid nucleation score came out at 0.331 ± 0.35.

Consider LERLVSALLHTIRFRRMVVH, for which the amyloid nucleation score result is “inactive”.

In the case of AESICSSVRSYGMSSFRDPE, the amyloid nucleation score was -0.887 ± 0.64. VLELLGPIMSRKIFLKVGFC: the amyloid nucleation score entry was “inactive”. As to STCVCYGSFCEASLWASLDG, the amyloid nucleation score worked out at 6.58 ± 0.075. Regarding LLRILANQLKYYETTLCVGG, the amyloid nucleation score is -0.27 ± 1.1. As for CFLTNRTRNSYRPSGKPLDM, the amyloid nucleation score is -0.702 ± 0.61. As for GWESGALWVANFLSVRQA, the amyloid nucleation score amounted to 0.19 ± 0.56. In the case of TGQKFT, the amyloid nucleation score is -0.615 ± 0.41. The substance KRFYMT had an amyloid nucleation score of 1.31 ± 0.081. As to NTAVSYFNHKSVAFFYFCDL, the amyloid nucleation score stood at 4.94 ± 0.064.

In turn, RYVQLIDHWSNGIVKVVGVL gave an amyloid nucleation score of 0.783 ± 0.56. Substance FKFKLGNGIMDGSRMGHWAL showed an amyloid nucleation score of 1.17 ± 0.47. Turning to PRKLLSLKPNSTAAGKCATL, the amyloid nucleation score was found to be 2.89 ± 0.079. As for VRCEESWGDIICD, the amyloid nucleation score entry is “inactive”. Regarding SHMHEEHIVEECTCSTPRRK, the amyloid nucleation score worked out at 1.32 ± 0.44. SSDLAGQRLSLCWVLCTG: the amyloid nucleation score was found to be 0.474 ± 0.53.

As to KYVFGKTYPRY, the amyloid nucleation score entry was “inactive”. Under FGKNYNFCNV stands -0.184 ± 0.63; under CFVYLDLLYMEMMYHRQVAY, -0.552 ± 0.34. In the case of AEAYGTSSRRSCCRGRVV, the amyloid nucleation score is 0.476 ± 0.5.

For VLDFLVSCADYSWSLNNCES, the amyloid nucleation score is -0.91 ± 0.76. In the case of FGLTRPEKWEHLHVYCNYMS, the amyloid nucleation score was determined as 0.615 ± 0.38. The figure for MSLILRSPLKTWLPLAHTQG is 0.187 ± 0.42; for SFDWWASHRTIVY it is -0.217 ± 0.42. The figure for RVWDNSVLGWQQGFSTVERV is 0.766 ± 0.3.
